From patent US20230060574A1 (Ablynx, published 2023) come the findings set out here.

Holding throughout (experiment): SPR ProteOn, SA immobilized, pH 7.4
Assay [1] addresses T1, human serum albumin (Sigma-Aldrich A3782) (human, UniProt P02768 25-609).
T1 construct: Bought protein; also called HSA; human SA

The target in assay [2] is T2, cynomolgus monkey serum albumin (generated in-house) (cynomolgus monkey, UniProt A2V9Z4 25-608, limits assumed).
T2 construct: also called cyno SA

Assay [3] concerns the target T3, rat serum albumin (Sigma-Aldrich A4538) (rat, UniProt P02770 25-608).
T3 construct: Bought protein; also called rat SA

The target in assay [4] is T4, mouse serum albumin (Albumin Bioscience 2601) (mouse, UniProt P07724 25-608).
T4 construct: Bought protein; also called mouse SA

For assay [5], the target named is T5, guinea pig serum albumin (Gentaur GPSA62) (guinea pig).
T5 construct: Bought protein; also called guinea pig SA

Assay [6] deals with T6, dog serum albumin (Abcam 119814) (dog, UniProt P49822 25-608).
T6 construct: Bought protein; also called dog SA

Assay [7] has as its target T7, pig serum albumin (Sigma-Aldrich A4414) (pig, UniProt P08835 25-607).
T7 construct: Bought protein; also called pig SA

B1: serum albumin binder of SEQ ID NO:19 (invention), T023500029 (VHH)
VHH: EVQLVESGGGVVQPGDSLRLSCAASGGTFSTYVMGWFRQAPGKEREFVSAISQNSIHTYYANSVKGRFTISRDNSKNTVYLQLNSLRPEDTALYYCAASRFTSWYTADYEYDYWGQGTLVTVSS
notes: No tag is mentioned there
With B1, the koff in assay [1] was 0.00027 s⁻¹; in assay [2] it was 0.00023 s⁻¹; in assay [3], 8e-05 s⁻¹; in assay [4], 0.00025 s⁻¹; in assay [5], 0.00031 s⁻¹; in assay [6], 0.00084 s⁻¹. Also, the koff in assay [7] is 0.0046 s⁻¹. The on-rate (kon) was determined as 610000 M⁻¹ s⁻¹ in assay [1]; 520000 M⁻¹ s⁻¹ in assay [2]; 1.2e+06 M⁻¹ s⁻¹ in assay [3]; 910000 M⁻¹ s⁻¹ in assay [4]; 1e+06 M⁻¹ s⁻¹ in assay [5]; 720000 M⁻¹ s⁻¹ in assay [6]. This molecule also displayed an on-rate constant (kon) in assay [7] of 100000 M⁻¹ s⁻¹. In assay [5], the Kd turned out to be 0.3 nM.

The koff is a measure of how fast the partners let go of each other. A word on the kon: it is a measure of how fast the partners come together. A word on the Kd: it is the constant that tells how readily two partners part at equilibrium.
